# Reference: EP1897948A1 (ZymoGenetics, Inc., dated 2008)
# B1: Human Ztgfβ-9 protein (ligand)
# chain: AGAPRAGRRPARPRGCADRPEELLEQLYGRLAAGVLSAFHHTLQLGPREQARNASCPAGGRPADRRFRPPTNLRSVSPWAYRISYDPARYPRYLPEAYCLCRGCLTGLFGEEDVRFRSAPVYMPTVVLRRTPACAGGRSVYTEAYVTIPVGCTCVPEPEKDADSINSSIDKQGAKLLLGPNDAPAGP
# notes: Expressed in BHK cells without a tag and secreted into the medium; also called transforming growth factor beta-9
# Target: the molecule itself
# Assay: western blot of BHK media, reducing (29 kDa) against non-reducing (49 kDa)
protein,measurement,value
B1,binding result,binds
